Experimental findings from patent publication EP4707390A1 (PeptiDream Inc., dated 2026) are described below.

The assay concerns the target T1, Recombinant human IgG1 Fc protein (110-HG, R&D Systems) (human, UniProt P01857-1 100-330 = IgG part).
T1 construct: domain: Fc; Bought protein; also called human IgG Fc protein; biotinylated Fc
Description: display assay, conjugates on linker 1 or 3, biotinylated Fc on streptavidin magnetic beads against beads without Fc, real-time PCR. (In general: Real-time PCR tracks product formation cycle by cycle.)

B1: Fc-binding peptide encoded by the translation region of SEQ ID NO: 26 (peptide)
peptide: MPDCAYHKGELVWCTGGGGSS
modifications: C-terminus covalently bonded to the puromycin of the linker; sample treated with oxidized glutathione after reverse transcription
notes: Tested as an mRNA/cDNA-linker-peptide conjugate on monovalent linker 1 or divalent linker 3
In the case of B1, the binding result is reported as “binds”.
